Reference: PMC4348336 (Biochemistry, 2015)

Biological target: Creatine kinase brain type (CKB) (UniProt P12277 1-381)
Assay: SEC-MALS

Sequence of Creatine kinase brain type (CKB) (P12277 whole entry): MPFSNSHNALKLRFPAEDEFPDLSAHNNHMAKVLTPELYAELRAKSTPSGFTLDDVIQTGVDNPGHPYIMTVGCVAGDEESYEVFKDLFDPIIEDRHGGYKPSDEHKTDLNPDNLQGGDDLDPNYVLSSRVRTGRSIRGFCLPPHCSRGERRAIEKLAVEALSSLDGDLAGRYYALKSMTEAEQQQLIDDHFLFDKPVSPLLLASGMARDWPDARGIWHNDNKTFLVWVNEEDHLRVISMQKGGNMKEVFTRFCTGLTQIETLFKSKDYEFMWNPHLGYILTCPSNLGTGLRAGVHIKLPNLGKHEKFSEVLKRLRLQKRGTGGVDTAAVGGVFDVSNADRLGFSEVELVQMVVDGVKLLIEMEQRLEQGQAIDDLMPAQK

B1: ASB9(1-252) (domain or fragment, UniProt Q96DX5 1-252, looked up)
chain: MDGKQGGMDGSKPAGPRDFPGIRLLSNPLMGDAVSDWSPMHEAAIHGHQLSLRNLISQGWAVNIITADHVSPLHEACLGGHLSCVKILLKHGAQVNGVTADWHTPLFNACVSGSWDCVNLLLQHGASVQPESDLASPIHEAARRGHVECVNSLIAYGGNIDHKISHLGTPLYLACENQQRACVKKLLESGADVNQGKGQDSPLHAVARTASEELACLLMDFGADTQAKNAEGKRPVELVPPESPLAQLFLER
stoichiometry N: 1 ASB9 per CK dimer
